Assay [1] deals with Recombinant C3d (human C3 residues 974-1265, C1010A, with N-terminal G-S-R-S-T) (human) (UniProt P01024). Description: ITC at 25 C, Efb-C titrated into recombinant C3d.
For assay [2] the target is unchanged. Description: ITC (Example 3, FIG. 17), Efb-C titrated into recombinant C3d.
Assay [3] has the same target. The assay can be described thus: ITC at 25 C, Efb-C titrated into recombinant C3d, single-site model.
The target is the same in assay [4]. Description: isothermal titration calorimetry, Efb-C titrated into recombinant C3d. Background: Isothermal titration calorimetry measures the heat released or taken up as one component is titrated into another.
Assay [5] has the same target. Description: ITC, model of two non-equivalent sites.
For assay [6] the target is unchanged. Description: ITC, Ehp titrated into recombinant C3d, model of two non-equivalent sites, first site.
For assay [7] the target is unchanged. The assay can be described thus: isothermal titration calorimetry, Ehp titrated into recombinant C3d; first site.
For assay [8] the target is unchanged. Description: ITC, Ehp titrated into recombinant C3d, model of two non-equivalent sites, second site.
Assay [9] has the same target. The assay can be described thus: isothermal titration calorimetry, Ehp titrated into recombinant C3d; second site.
Assay [10] has the same target. Description: isothermal titration calorimetry, Ehp titrated into recombinant C3d; first site of a model with two non-equivalent sites.
Assay [11] has the same target. The assay can be described thus: isothermal titration calorimetry, Ehp titrated into recombinant C3d; second site of a model with two non-equivalent sites.
For assay [12] the target is unchanged. Description: ITC at 25 C, Efb titrated into recombinant C3d.
The target is the same in assay [13]. Description: ITC (Example 3, FIG. 17), Efb titrated into recombinant C3d.
For assay [14] the target is unchanged. The assay can be described thus: ITC at 25 C, Efb titrated into recombinant C3d, single-site model.
For assay [15] the target is unchanged. The assay can be described thus: isothermal titration calorimetry, Efb titrated into recombinant C3d.

Sequence of Recombinant C3d (human C3 residues 974-1265, C1010A, with N-terminal G-S-R-S-T) (human) (P01024 other isoform, or with tags, fused parts or gaps C1010A C1010A limits assumed, form in doubt): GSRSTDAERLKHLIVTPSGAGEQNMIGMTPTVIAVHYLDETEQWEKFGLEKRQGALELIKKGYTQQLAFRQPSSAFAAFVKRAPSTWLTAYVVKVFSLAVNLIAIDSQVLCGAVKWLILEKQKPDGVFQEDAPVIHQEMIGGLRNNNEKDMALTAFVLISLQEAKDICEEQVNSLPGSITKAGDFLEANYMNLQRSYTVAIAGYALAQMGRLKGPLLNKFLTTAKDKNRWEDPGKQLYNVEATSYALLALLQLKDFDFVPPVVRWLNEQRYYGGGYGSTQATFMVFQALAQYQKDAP

In general, Kd refers to the concentration at which binding is half-saturated. Turning to “Efb-C, C-terminal C3-binding domain of Efb from S. aureus strain Mu50 (from UniProt P0C6P2 94-165)”, the enthalpy of binding (ΔH) in [1] is -8.5 kcal/mol. Besides, the Kd in assay [2] and in assay [3] was 2 nM in each case. Also, the N in [4] came to 1.
For “SAV1155/Ehp (Efb Homologous Protein), recombinant mature form, S. aureus strain Mu50”, the change in ΔG between the first and second sites in assay [5] is 3 kcal/mol. The unfavorable change in enthalpy release between the first and second sites in assay [5] was 27 kcal/mol. The Kd was determined as 0.2 nM in [6], 33 nM in [8], 0.2 nM in [10] and 33 nM in assay [11]. Further, the N in assay [7] and in assay [9] was 0.5 throughout. Moreover, the ΔH in assay [7] is -21.1 kcal/mol; in [9], 5.7 kcal/mol.
For “Extracellular fibrinogen-binding protein (Efb), recombinant full-length, S. aureus strain Mu50 (from UniProt P0C6P2 29-165)”, the enthalpy of binding (ΔH) in [12] is -9 kcal/mol. The Kd in assay [13] is 2 nM. For the same substance, the Kd in [14] turned out to be 2 nM. In assay [15], the Kd was found to be 4 nM, the N amounted to 1 and the ΔH was -9.1 kcal/mol.

Source of the values: patent publication US20110046075A1.
